# Data as given in patent US20090117124A1 (Pfizer, published 2009).
# T1: human IgA (Sigma, Cat. No. I2636) (human)
# T1 chain: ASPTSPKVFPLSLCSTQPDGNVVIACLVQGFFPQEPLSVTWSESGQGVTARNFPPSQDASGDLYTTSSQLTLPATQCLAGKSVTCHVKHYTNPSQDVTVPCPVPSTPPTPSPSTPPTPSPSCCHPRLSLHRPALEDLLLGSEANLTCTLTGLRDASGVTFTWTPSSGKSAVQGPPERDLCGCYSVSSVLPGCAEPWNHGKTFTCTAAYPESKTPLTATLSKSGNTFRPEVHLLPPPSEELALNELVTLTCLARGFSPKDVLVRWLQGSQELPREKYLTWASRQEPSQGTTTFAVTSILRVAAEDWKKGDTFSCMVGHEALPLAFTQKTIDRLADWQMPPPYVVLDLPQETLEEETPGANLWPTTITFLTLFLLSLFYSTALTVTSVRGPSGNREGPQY
# How the values were obtained:
# [1] = target: T2, cynomolgus monkey IgE (in cynomolgus serum, Harlan Sera-Lab Ltd) (cynomolgus monkey); assay: capture ELISA, Test 1, Cyno 2
# T2 construct: Serum was the source of IgE; eight serum samples; also called cynomolgus IgE; Cyno 1 to Cyno 8 serum samples
# Experimental: (§1) Wells were washed once with 150 μL/well wash buffer (0.05% Tween-20, Sigma, Cat. No. P7949/TBS) then blocked with 150 μL/well 1% BSA (Sigma, Cat. No. A7030) in TBS for 2 hours at room temperature. Wells were washed twice with 150 μL wash buffer. 50 μL human (in-house donors) or cynomolgus serum (Harlan Sera-Lab Ltd, Loughborough) was added from neat to at least 1:16 dilution in 1% BSA/0.05% Tween-20/TBS diluent buffer. […] Wells were incubated for 2 hours at 25° C. before washing (3×150 μL wash buffer). […] Wells were incubated for 1 hour at 25° C. then washed (3×150 μL wash buffer). Streptavidin-HRP (Amersham Bioscience, Cat. No. RPN 1231) diluted 1:1000 in diluent buffer was added to all wells and incubated for 45 minutes at room temperature. Wells were washed (3×150 […] wash buffer). 50 μL OPD (Dako, Cat. No. S2045) was added to all wells and the color allowed to develop for 10 minutes before stopping the reaction with 50 μl 0.6M H₂SO₄ and the absorbance measured at 490 nm.
# [2] = target: T2, cynomolgus monkey IgE (in cynomolgus …); assay: capture ELISA, Test 1, Cyno 4
# Experimental: as §1
# [3] = target: T2, cynomolgus monkey IgE (in cynomolgus …); assay: capture ELISA, Test 1, Cyno 6
# Experimental: as §1
# [4] = target: T2, cynomolgus monkey IgE (in cynomolgus …); assay: capture ELISA, Test 1, Cyno 1
# Experimental: as §1
# [5] = target: T1, human IgA (Sigma, Cat. No. I2636); assay: ELISA on coated immunoglobulin
# Experimental: (§2) Wells were washed 3× with 150 μL wash buffer (0.05% Tween-20 (Sigma, Cat. No. P7949)/PBS) then blocked with 150 μL/well blocking buffer (2.5% BSA (Sigma, Cat. No. A7030)/PBS) for 2 hours at room temperature. Wells were washed 3× with 150 μL wash buffer/well. […] Antibodies were diluted in diluent buffer (PBS/1% BSA/0.05% Tween-20) and this was added to blank control wells (duplicate wells for each secondary antibody used). Antibodies were incubated for 2 hours at room temperature. Wells were washed 3× with 150 μL wash buffer/well. Binding of control antibodies to immunoglobulin was detected with anti-mouse IgG-HRP conjugate (Sigma, Cat. No. A4416) diluted 1:8000 in diluent buffer. 50 μL/well was added to control antibody and blank wells. Wells were incubated for 1 hour at room temperature, then washed 3× with 150 μL wash buffer/well. 50 μl OPD (Dako, Cat. No. […] Wells were incubated for 1 hour at room temperature then washed 3× with 150 μL wash buffer/well. Streptavidin-HRP (Amersham Bioscience, Cat. No. RPN 1231) diluted 1:2000 in diluent buffer was added to all wells and incubated for 45 minutes at room temperature. Wells were washed (3×150 μL wash buffer).
# [6] = target: T3, human IgG3 (Biodesign, Cat. No. A50186H) (human); assay: ELISA on coated immunoglobulin
# T3 construct: Bought immunoglobulin coated on the plate
# Experimental: as §2
# [7] = target: T4, human IgG1 (Biodesign, Cat. No. A50183H) (human); assay: ELISA on coated immunoglobulin
# T4 construct: Bought immunoglobulin coated on the plate
# Experimental: as §2
# [8] = target: T2, cynomolgus monkey IgE (in cynomolgus …); assay: capture ELISA, Test 1, Cyno 3
# Experimental: as §1
# [9] = target: T2, cynomolgus monkey IgE (in cynomolgus …); assay: capture ELISA, Test 1, Cyno 5
# Experimental: as §1
# [10] = target: T2, cynomolgus monkey IgE (in cynomolgus …); assay: capture ELISA, Test 1, Cyno 7
# Experimental: as §1
# [11] = target: T2, cynomolgus monkey IgE (in cynomolgus …); assay: capture ELISA, Test 2, Cyno 6
# Experimental: as §1
# [12] = target: T2, cynomolgus monkey IgE (in cynomolgus …); assay: capture ELISA, Test 2, Cyno 5
# Experimental: as §1
# [13] = target: T2, cynomolgus monkey IgE (in cynomolgus …); assay: capture ELISA, Test 2, Cyno 7
# Experimental: as §1
# [14] = target: T2, cynomolgus monkey IgE (in cynomolgus …); assay: capture ELISA, Test 2, Cyno 3
# Experimental: as §1
# [15] = target: T2, cynomolgus monkey IgE (in cynomolgus …); assay: capture ELISA, Test 2, Cyno 4
# Experimental: as §1
# [16] = target: T2, cynomolgus monkey IgE (in cynomolgus …); assay: capture ELISA, Test 2, Cyno 8
# Experimental: as §1
# [17] = target: T2, cynomolgus monkey IgE (in cynomolgus …); assay: capture ELISA, Test 2, Cyno 2
# Experimental: as §1
# [18] = target: T2, cynomolgus monkey IgE (in cynomolgus …); assay: capture ELISA, Test 2, Cyno 1
# Experimental: as §1
binder,measurement,setting,value
"6.605.1 (recombinant) (antibody, human IgG2, kappa, V domains shown, Human IgG2 kappa; leader omitted; also called recombinant 6.605.1) VH: QVHLVQSGAEVKMPGASVKVSCKASGYTFTSYGISWVRQAPGQGLEWMGWISAYNGNTNYAQKLQGRITMTTDTSTSTAYMDLRSLRSDDTAVYYCARDGDYYDPFDYWGQGTLVTVSS VL: DIQMTQSPSSLSASVGDRVTITCRTSQSISNWLNWYQQKPGKAPKLLIYGASTLKSGVPSRFSGSESGTDFTLTISSLQPEDFATYYCQQSYSTPPTFGQGTKVEIKR",IgE concentration detected,[1],91 ng/mL
same,IgE concentration detected,[2],0 ng/mL
same,IgE concentration detected,[3],0 ng/mL
same,IgE concentration detected,[4],120 ng/mL
same,A290 nm,[5],0.04 A290 nm
same,A290 nm,[6],0.05 A290 nm
same,A290 nm,[7],0.07 A290 nm
same,IgE concentration detected,[8],107 ng/mL
same,IgE concentration detected,[9],140 ng/mL
same,IgE concentration detected,[10],0 ng/mL
"6.605.1 Hc-H3Q, M13K, D82E Lc-T25A, T53S (antibody, human IgG2, kappa, V domains shown, Human IgG2 kappa; leader omitted; also called 6.605.1 (H3Q, M13K, D82E-T25A, T53S); 6.605.1 QKE/AS) VH: QVQLVQSGAEVKKPGASVKVSCKASGYTFTSYGISWVRQAPGQGLEWMGWISAYNGNTNYAQKLQGRITMTTDTSTSTAYMELRSLRSDDTAVYYCARDGDYYDPFDYWGQGTLVTVSS VL: DIQMTQSPSSLSASVGDRVTITCRASQSISNWLNWYQQKPGKAPKLLIYGASSLKSGVPSRFSGSESGTDFTLTISSLQPEDFATYYCQQSYSTPPTFGQGTKVEIKR",IgE concentration detected,[1],103 ng/mL
same,IgE concentration detected,[2],0 ng/mL
same,IgE concentration detected,[4],133 ng/mL
same,A290 nm,[5],0.04 A290 nm
same,A290 nm,[6],0.04 A290 nm
same,A290 nm,[7],0.07 A290 nm
same,IgE concentration detected,[8],122 ng/mL
same,IgE concentration detected,[9],173 ng/mL
same,IgE concentration detected,[10],0 ng/mL
"5.396.1 (recombinant) (antibody, human IgG2, kappa, V domains shown, Fully human IgG2 kappa, expressed in 293 Freestyle cells; also called recombinant 5.396.1) VH: QVQLQQWGAGLLKPSETLSLTCAVYGGSFSGYYWSWIRQPPGKGLEWIGEIHHSGSTNYNPSLKSRVTISVDTSKNQFSLKLSSVTAADTAVYYCARDNWNDSFYYYYGMDVWGQGTTVTVSS VL: DIQMTQSPSSLSASVGDRVTITCRASQGISNHLAWFQQKPGKAPKSLIYAASSLQSGVPSKFSGSGSGTDFTLTISSLQPEDFATYYCQQYNRHPFTFGPGTKVDIKR",IgE concentration detected,[1],0 ng/mL
same,IgE concentration detected,[2],0 ng/mL
same,IgE concentration detected,[3],3 ng/mL
same,IgE concentration detected,[4],30 ng/mL
same,A290 nm,[5],0.04 A290 nm
same,A290 nm,[6],0.05 A290 nm
same,A290 nm,[7],0.07 A290 nm
same,IgE concentration detected,[9],37 ng/mL
same,IgE concentration detected,[10],0 ng/mL
"5.396.1 Hc-S103N Lc-K61R (antibody, human IgG2, kappa, V domains shown, Human IgG2 kappa; leader omitted; also called 5.396.1 (S103N/K61R); 5.396.1 S103N/K61R) VH: QVQLQQWGAGLLKPSETLSLTCAVYGGSFSGYYWSWIRQPPGKGLEWIGEIHHSGSTNYNPSLKSRVTISVDTSKNQFSLKLSSVTAADTAVYYCARDNWNDNFYYYYGMDVWGQGTTVTVSS VL: DIQMTQSPSSLSASVGDRVTITCRASQGISNHLAWFQQKPGKAPKSLIYAASSLQSGVPSRFSGSGSGTDFTLTISSLQPEDFATYYCQQYNRHPFTFGPGTKVDIKR",IgE concentration detected,[11],0 ng/mL
same,IgE concentration detected,[12],102 ng/mL
same,IgE concentration detected,[1],0 ng/mL
same,IgE concentration detected,[2],0 ng/mL
same,IgE concentration detected,[13],0 ng/mL
same,IgE concentration detected,[3],0 ng/mL
same,IgE concentration detected,[4],41 ng/mL
same,IgE concentration detected,[14],53 ng/mL
same,A290 nm,[5],0.04 A290 nm
same,A290 nm,[6],0.05 A290 nm
same,A290 nm,[7],0.08 A290 nm
same,IgE concentration detected,[8],39 ng/mL
same,IgE concentration detected,[15],0 ng/mL
same,IgE concentration detected,[9],57 ng/mL
same,IgE concentration detected,[16],0 ng/mL
same,IgE concentration detected,[17],39 ng/mL
same,IgE concentration detected,[18],57 ng/mL
same,IgE concentration detected,[10],0 ng/mL
